From IntAct's records for PubMed 16642037

B1: RAC-alpha serine/threonine-protein kinase (Rattus norvegicus (Rat)), P47196 (parent)
chain: MNDVAIVKEGWLHKRGEYIKTWRPRYFLLKNDGTFIGYKERPQDVEQRESPLNNFSVAQCQLMKTERPRPNTFIIRCLQWTTVIERTFHVETPEEREEWTTAIQTVADGLKRQEEETMDFRSGSPSDNSGAEEMEVALAKPKHRVTMNEFEYLKLLGKGTFGKVILVKEKATGRYYAMKILKKEVIVAKDEVAHTLTENRVLQNSRHPFLTALKYSFQTHDRLCFVMEYANGGELFFHLSRERVFSEDRARFYGAEIVSALDYLHSEKNVVYRDLKLENLMLDKDGHIKITDFGLCKEGIKDGATMKTFCGTPEYLAPEVLEDNDYGRAVDWWGLGVVMYEMMCGRLPFYNQDHEKLFELILMEEIRFPRTLGPEAKSLLSGLLKKDPTQRLGGGSEDAKEIMQHRFFANIVWQDVYEKKLSPPFKPQVTSETDTRYFDEEFTAQMITITPPDQDDSMECVDSERRPHFPQFSYSASGTA

Variants of: B1
Conditions: with nfkb1_rat Nfkb1, Q63369
nfkb1_rat Nfkb1, Q63369, sequence (Q63369 whole entry): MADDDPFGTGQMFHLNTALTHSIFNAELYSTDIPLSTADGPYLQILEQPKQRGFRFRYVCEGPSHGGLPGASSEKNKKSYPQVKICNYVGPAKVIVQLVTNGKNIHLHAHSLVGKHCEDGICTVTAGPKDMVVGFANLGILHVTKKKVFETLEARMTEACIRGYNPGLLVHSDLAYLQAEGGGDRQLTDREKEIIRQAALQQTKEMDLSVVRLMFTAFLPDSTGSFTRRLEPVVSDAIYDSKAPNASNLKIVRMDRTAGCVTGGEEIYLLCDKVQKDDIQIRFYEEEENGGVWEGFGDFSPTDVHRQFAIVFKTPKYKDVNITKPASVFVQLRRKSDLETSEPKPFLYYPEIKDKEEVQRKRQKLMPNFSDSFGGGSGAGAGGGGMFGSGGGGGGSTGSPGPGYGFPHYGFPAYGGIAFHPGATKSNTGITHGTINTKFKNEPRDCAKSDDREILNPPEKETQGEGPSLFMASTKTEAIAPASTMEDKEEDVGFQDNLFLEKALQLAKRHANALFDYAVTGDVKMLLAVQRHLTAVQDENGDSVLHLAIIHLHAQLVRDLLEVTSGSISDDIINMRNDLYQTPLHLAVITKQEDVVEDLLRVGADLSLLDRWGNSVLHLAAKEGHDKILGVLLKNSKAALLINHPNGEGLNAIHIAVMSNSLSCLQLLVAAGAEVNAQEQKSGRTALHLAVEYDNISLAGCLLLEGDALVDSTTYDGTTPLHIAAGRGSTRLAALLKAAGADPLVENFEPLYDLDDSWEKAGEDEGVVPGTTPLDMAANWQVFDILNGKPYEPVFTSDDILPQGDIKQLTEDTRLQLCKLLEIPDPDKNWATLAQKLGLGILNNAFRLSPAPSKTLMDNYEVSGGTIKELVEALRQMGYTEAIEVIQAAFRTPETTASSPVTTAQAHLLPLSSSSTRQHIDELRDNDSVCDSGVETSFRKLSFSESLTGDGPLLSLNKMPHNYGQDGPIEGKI

Effect of a mutation on the interaction, increasing interaction:
MNDVAIVKEGWLHKRGEYIKTWRPRYFLLKNDGTFIGYKERPQDVEQRESPLNNFSVAQCQLMKTERPRPNTFIIRCLQWTTVIERTFHVETPEEREEWTTAIQTVADGLKRQEEETMDFRSGSPSDNSGAEEMEVALAKPKHRVTMNEFEYLKLLGKGTFGKVILVKEKATGRYYAMAILKKEVIVAKDEVAHTLTENRVLQNSRHPFLTALKYSFQTHDRLCFVMEYANGGELFFHLSRERVFSEDRARFYGAEIVSALDYLHSEKNVVYRDLKLENLMLDKDGHIKITDFGLCKEGIKDGATMKTFCGTPEYLAPEVLEDNDYGRAVDWWGLGVVMYEMMCGRLPFYNQDHEKLFELILMEEIRFPRTLGPEAKSLLSGLLKKDPTQRLGGGSEDAKEIMQHRFFANIVWQDVYEKKLSPPFKPQVTSETDTRYFDEEFTAQMITITPPDQDDSMECVDSERRPHFPQFSYSASGTA [K179A]
MNDVAIVKEGWLHKRGEYIKTWRPRYFLLKNDGTFIGYKERPQDVEQRESPLNNFSVAQCQLMKTERPRPNTFIIRCLQWTTVIERTFHVETPEEREEWTTAIQTVADGLKRQEEETMDFRSGSPSDNSGAEEMEVALAKPKHRVTMNEFEYLKLLGKGTFGKVILVKEKATGRYYAMKILKKEVIVAKDEVAHTLTENRVLQNSRHPFLTALKYSFQTHDRLCFVMEYANGGELFFHLSRERVFSEDRARFYGAEIVSALDYLHSEKNVVYRDLKLENLMLDKDGHIKITDFGLCKEGIKDGATMKDFCGTPEYLAPEVLEDNDYGRAVDWWGLGVVMYEMMCGRLPFYNQDHEKLFELILMEEIRFPRTLGPEAKSLLSGLLKKDPTQRLGGGSEDAKEIMQHRFFANIVWQDVYEKKLSPPFKPQVTSETDTRYFDEEFTAQMITITPPDQDDSMECVDSERRPHFPQFSYSASGTA [T308D]
MNDVAIVKEGWLHKRGEYIKTWRPRYFLLKNDGTFIGYKERPQDVEQRESPLNNFSVAQCQLMKTERPRPNTFIIRCLQWTTVIERTFHVETPEEREEWTTAIQTVADGLKRQEEETMDFRSGSPSDNSGAEEMEVALAKPKHRVTMNEFEYLKLLGKGTFGKVILVKEKATGRYYAMKILKKEVIVAKDEVAHTLTENRVLQNSRHPFLTALKYSFQTHDRLCFVMEYANGGELFFHLSRERVFSEDRARFYGAEIVSALDYLHSEKNVVYRDLKLENLMLDKDGHIKITDFGLCKEGIKDGATMKTFCGTPEYLAPEVLEDNDYGRAVDWWGLGVVMYEMMCGRLPFYNQDHEKLFELILMEEIRFPRTLGPEAKSLLSGLLKKDPTQRLGGGSEDAKEIMQHRFFANIVWQDVYEKKLSPPFKPQVTSETDTRYFDEEFTAQMITITPPDQDDSMECVDSERRPHFPQFDYSASGTA [S473D]
